T1: Placenta Growth Factor (PlGF), human (human, UniProt P49763 21-149)
T1 chain: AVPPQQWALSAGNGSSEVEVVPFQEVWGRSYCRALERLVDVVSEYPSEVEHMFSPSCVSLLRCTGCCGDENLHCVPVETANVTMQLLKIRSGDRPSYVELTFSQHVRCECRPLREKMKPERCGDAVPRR


Assays:
[1] = target: T1, Placenta Growth Factor (PlGF), human; test: ELISA
[2] = target: Hepatocyte Growth Factor (HGF), human (human, UniProt P14210 32-728); test: ELISA
Chain of Hepatocyte Growth Factor (HGF), human (P14210 32-728): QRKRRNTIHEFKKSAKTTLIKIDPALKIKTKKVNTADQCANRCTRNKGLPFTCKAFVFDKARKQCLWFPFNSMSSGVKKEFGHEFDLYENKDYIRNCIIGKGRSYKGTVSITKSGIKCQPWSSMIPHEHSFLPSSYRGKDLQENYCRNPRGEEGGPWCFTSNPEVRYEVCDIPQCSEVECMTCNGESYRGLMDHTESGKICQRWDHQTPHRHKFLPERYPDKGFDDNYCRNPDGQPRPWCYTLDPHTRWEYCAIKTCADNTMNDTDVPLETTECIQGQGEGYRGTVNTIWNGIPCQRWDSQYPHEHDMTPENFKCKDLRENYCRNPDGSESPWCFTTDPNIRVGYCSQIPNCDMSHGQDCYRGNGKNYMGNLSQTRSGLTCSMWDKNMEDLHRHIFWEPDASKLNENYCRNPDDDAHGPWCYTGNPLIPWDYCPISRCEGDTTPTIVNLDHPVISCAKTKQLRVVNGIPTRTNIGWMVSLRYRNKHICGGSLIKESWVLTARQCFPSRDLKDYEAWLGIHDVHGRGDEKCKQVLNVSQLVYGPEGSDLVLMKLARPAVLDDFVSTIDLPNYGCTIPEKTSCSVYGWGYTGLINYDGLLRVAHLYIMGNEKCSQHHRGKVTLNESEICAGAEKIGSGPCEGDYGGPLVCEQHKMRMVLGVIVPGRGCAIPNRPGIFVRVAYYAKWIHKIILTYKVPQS

| Binder | EC50 [1] [nM] | EC50 [2] [nM] |
| --- | --- | --- |
| HC 6/SLC 6 (antibody) chain 1: GQGTLVTVSSASTKGPQPVLHQPPAMSSALGTTIRLTCTLRNDHDIGVYSVYWYQQRPGHPPRFLLRYFSQSDKSQGPQVPPRFSGSKDVARNRGYLSISELQPEDEAMYYCAMGARSRCWPRGFQSKHNSVTHVFGSGTQLTVLSQPKATPSVTLFPPSSEELQANKATLVCLMNDFYPGILTVTWKADGTPITQGVEMTTPSKQSNNKYAASSYLSLTPEQWRSRRSYSCQVMHEGSTVEKTVAPAECS chain 2: MSWAPVLLMLFVYCTGCGPQPVLHQPPAMSSALGTTIRLTCTLRNDHDIGVYSVYWYQQRPGHPPRFLLRYFSQSDKSQGPQVPPRFSGSKDVARNRGYLSISVTHVFGSGTQLTVLSQPKATQVQLVQ | 0.139 | 0.061 |
| HC 6/SLC 3 (antibody) chain 1: GQGTLVTVSSASTKGPQPVLHQPPAMSSALGTTIRLTCTLRNDHDIGVYSVYWYQQRPGHPPRFLLRYFSQSDKSQGPQVPPRFSGSKDVARNRGYLSISELQPEDEAMYYCAMGARSRCWPRGFQSKHNSVTHVFGSGTQLTVLSQPKATPSVTLFPPSSEELQANKATLVCLMNDFYPGILTVTWKADGTPITQGVEMTTPSKQSNNKYAASSYLSLTPEQWRSRRSYSCQVMHEGSTVEKTVAPAECS chain 2: MSWAPVLLMLFVYCTGCGPQPVLHQPPAMSSALGTTIRLTCTLRNDHDIGVYSVYWYQQRPGHPPRFLLRYFSQSDKSQGPQVPPRFSGSKDVARNRGYLSISVTHVFGSGTQLTVLSQPQVQLVQ | 0.16 | 0.069 |
| HC 4/SLC 2 (antibody) chain 1: GQGTLVTVSSASTKQPVLHQPPAMSSALGTTIRLTCTLRNDHDIGVYSVYWYQQRPGHPPRFLLRYFSQSDKSQGPQVPPRFSGSKDVARNRGYLSISELQPEDEAMYYCAMGARSRCWPRGFQSKHNSVTHVFGSGTQLTVLSQPKATPSVTLFPPSSEELQANKATLVCLMNDFYPGILTVTWKADGTPITQGVEMTTPSKQSNNKYAASSYLSLTPEQWRSRRSYSCQVMHEGSTVEKTVAPAECS chain 2: MSWAPVLLMLFVYCTGCGPQPVLHQPPAMSSALGTTIRLTCTLRNDHDIGVYSVYWYQQRPGHPPRFLLRYFSQSDKSQGPQVPPRFSGSKDVARNRGYLSISVTHVFGSGTQLTVLSQQVQLVQ | 0.188 | 0.053 |
| HC 2/SLC 7 (antibody) chain 1: GQGTLVTVSSASQPVLHQPPAMSSALGTTIRLTCTLRNDHDIGVYSVYWYQQRPGHPPRFLLRYFSQSDKSQGPQVPPRFSGSKDVARNRGYLSISELQPEDEAMYYCAMGARSRCWPRGFQSKHNSVTHVFGSGTQLTVLSQPKATPSVTLFPPSSEELQANKATLVCLMNDFYPGILTVTWKADGTPITQGVEMTTPSKQSNNKYAASSYLSLTPEQWRSRRSYSCQVMHEGSTVEKTVAPAECS chain 2: MSWAPVLLMLFVYCTGCGPQPVLHQPPAMSSALGTTIRLTCTLRNDHDIGVYSVYWYQQRPGHPPRFLLRYFSQSDKSQGPQVPPRFSGSKDVARNRGYLSISVTHVFGSGTQLTVLSQPKATPQVQLVQ | 0.148 | 0.055 |
| HC 2/SLC 5 (antibody) chain 1: GQGTLVTVSSASQPVLHQPPAMSSALGTTIRLTCTLRNDHDIGVYSVYWYQQRPGHPPRFLLRYFSQSDKSQGPQVPPRFSGSKDVARNRGYLSISELQPEDEAMYYCAMGARSRCWPRGFQSKHNSVTHVFGSGTQLTVLSQPKATPSVTLFPPSSEELQANKATLVCLMNDFYPGILTVTWKADGTPITQGVEMTTPSKQSNNKYAASSYLSLTPEQWRSRRSYSCQVMHEGSTVEKTVAPAECS chain 2: MSWAPVLLMLFVYCTGCGPQPVLHQPPAMSSALGTTIRLTCTLRNDHDIGVYSVYWYQQRPGHPPRFLLRYFSQSDKSQGPQVPPRFSGSKDVARNRGYLSISVTHVFGSGTQLTVLSQPKAQVQLVQ | 0.248 | 0.052 |
| HC 10/SLC 7 (antibody) chain 1: GQGTLVTVSSASTKGPSVFPQPVLHQPPAMSSALGTTIRLTCTLRNDHDIGVYSVYWYQQRPGHPPRFLLRYFSQSDKSQGPQVPPRFSGSKDVARNRGYLSISELQPEDEAMYYCAMGARSRCWPRGFQSKHNSVTHVFGSGTQLTVLSQPKATPSVTLFPPSSEELQANKATLVCLMNDFYPGILTVTWKADGTPITQGVEMTTPSKQSNNKYAASSYLSLTPEQWRSRRSYSCQVMHEGSTVEKTVAPAECS chain 2: MSWAPVLLMLFVYCTGCGPQPVLHQPPAMSSALGTTIRLTCTLRNDHDIGVYSVYWYQQRPGHPPRFLLRYFSQSDKSQGPQVPPRFSGSKDVARNRGYLSISVTHVFGSGTQLTVLSQPKATPQVQLVQ | 0.056 | 0.059 |
| HC 8/SLC 4 (antibody) chain 1: GQGTLVTVSSASTKGPSVQPVLHQPPAMSSALGTTIRLTCTLRNDHDIGVYSVYWYQQRPGHPPRFLLRYFSQSDKSQGPQVPPRFSGSKDVARNRGYLSISELQPEDEAMYYCAMGARSRCWPRGFQSKHNSVTHVFGSGTQLTVLSQPKATPSVTLFPPSSEELQANKATLVCLMNDFYPGILTVTWKADGTPITQGVEMTTPSKQSNNKYAASSYLSLTPEQWRSRRSYSCQVMHEGSTVEKTVAPAECS chain 2: MSWAPVLLMLFVYCTGCGPQPVLHQPPAMSSALGTTIRLTCTLRNDHDIGVYSVYWYQQRPGHPPRFLLRYFSQSDKSQGPQVPPRFSGSKDVARNRGYLSISVTHVFGSGTQLTVLSQPKQVQLVQ | 0.281 | 0.071 |
| HC 4/SLC 4 (antibody) chain 1: GQGTLVTVSSASTKQPVLHQPPAMSSALGTTIRLTCTLRNDHDIGVYSVYWYQQRPGHPPRFLLRYFSQSDKSQGPQVPPRFSGSKDVARNRGYLSISELQPEDEAMYYCAMGARSRCWPRGFQSKHNSVTHVFGSGTQLTVLSQPKATPSVTLFPPSSEELQANKATLVCLMNDFYPGILTVTWKADGTPITQGVEMTTPSKQSNNKYAASSYLSLTPEQWRSRRSYSCQVMHEGSTVEKTVAPAECS chain 2: MSWAPVLLMLFVYCTGCGPQPVLHQPPAMSSALGTTIRLTCTLRNDHDIGVYSVYWYQQRPGHPPRFLLRYFSQSDKSQGPQVPPRFSGSKDVARNRGYLSISVTHVFGSGTQLTVLSQPKQVQLVQ | 0.196 | 0.058 |
| HC 8/SLC 3 (antibody) chain 1: GQGTLVTVSSASTKGPSVQPVLHQPPAMSSALGTTIRLTCTLRNDHDIGVYSVYWYQQRPGHPPRFLLRYFSQSDKSQGPQVPPRFSGSKDVARNRGYLSISELQPEDEAMYYCAMGARSRCWPRGFQSKHNSVTHVFGSGTQLTVLSQPKATPSVTLFPPSSEELQANKATLVCLMNDFYPGILTVTWKADGTPITQGVEMTTPSKQSNNKYAASSYLSLTPEQWRSRRSYSCQVMHEGSTVEKTVAPAECS chain 2: MSWAPVLLMLFVYCTGCGPQPVLHQPPAMSSALGTTIRLTCTLRNDHDIGVYSVYWYQQRPGHPPRFLLRYFSQSDKSQGPQVPPRFSGSKDVARNRGYLSISVTHVFGSGTQLTVLSQPQVQLVQ | 0.196 | 0.071 |
| HC 8/SLC 7 (antibody) chain 1: GQGTLVTVSSASTKGPSVQPVLHQPPAMSSALGTTIRLTCTLRNDHDIGVYSVYWYQQRPGHPPRFLLRYFSQSDKSQGPQVPPRFSGSKDVARNRGYLSISELQPEDEAMYYCAMGARSRCWPRGFQSKHNSVTHVFGSGTQLTVLSQPKATPSVTLFPPSSEELQANKATLVCLMNDFYPGILTVTWKADGTPITQGVEMTTPSKQSNNKYAASSYLSLTPEQWRSRRSYSCQVMHEGSTVEKTVAPAECS chain 2: MSWAPVLLMLFVYCTGCGPQPVLHQPPAMSSALGTTIRLTCTLRNDHDIGVYSVYWYQQRPGHPPRFLLRYFSQSDKSQGPQVPPRFSGSKDVARNRGYLSISVTHVFGSGTQLTVLSQPKATPQVQLVQ | 0.085 | 0.058 |
| HC 3/SLC 15 (antibody) chain 1: GQGTLVTVSSASTQPVLHQPPAMSSALGTTIRLTCTLRNDHDIGVYSVYWYQQRPGHPPRFLLRYFSQSDKSQGPQVPPRFSGSKDVARNRGYLSISELQPEDEAMYYCAMGARSRCWPRGFQSKHNSVTHVFGSGTQLTVLSQPKATPSVTLFPPSSEELQANKATLVCLMNDFYPGILTVTWKADGTPITQGVEMTTPSKQSNNKYAASSYLSLTPEQWRSRRSYSCQVMHEGSTVEKTVAPAECS chain 2: MSWAPVLLMLFVYCTGCGPQPVLHQPPAMSSALGTTIRLTCTLRNDHDIGVYSVYWYQQRPGHPPRFLLRYFSQSDKSQGPQVPPRFSGSKDVARNRGYLSISVTHVFGSGTQLTVLSQPKATPSVTGGGGSQVQLVQ | 0.057 | ~0.041 |
| HC 10/SLC 15 (antibody) chain 1: GQGTLVTVSSASTKGPSVFPQPVLHQPPAMSSALGTTIRLTCTLRNDHDIGVYSVYWYQQRPGHPPRFLLRYFSQSDKSQGPQVPPRFSGSKDVARNRGYLSISELQPEDEAMYYCAMGARSRCWPRGFQSKHNSVTHVFGSGTQLTVLSQPKATPSVTLFPPSSEELQANKATLVCLMNDFYPGILTVTWKADGTPITQGVEMTTPSKQSNNKYAASSYLSLTPEQWRSRRSYSCQVMHEGSTVEKTVAPAECS chain 2: MSWAPVLLMLFVYCTGCGPQPVLHQPPAMSSALGTTIRLTCTLRNDHDIGVYSVYWYQQRPGHPPRFLLRYFSQSDKSQGPQVPPRFSGSKDVARNRGYLSISVTHVFGSGTQLTVLSQPKATPSVTGGGGSQVQLVQ | 0.049 | 0.054 |
| HC 3/SLC 2 (antibody) chain 1: GQGTLVTVSSASTQPVLHQPPAMSSALGTTIRLTCTLRNDHDIGVYSVYWYQQRPGHPPRFLLRYFSQSDKSQGPQVPPRFSGSKDVARNRGYLSISELQPEDEAMYYCAMGARSRCWPRGFQSKHNSVTHVFGSGTQLTVLSQPKATPSVTLFPPSSEELQANKATLVCLMNDFYPGILTVTWKADGTPITQGVEMTTPSKQSNNKYAASSYLSLTPEQWRSRRSYSCQVMHEGSTVEKTVAPAECS chain 2: MSWAPVLLMLFVYCTGCGPQPVLHQPPAMSSALGTTIRLTCTLRNDHDIGVYSVYWYQQRPGHPPRFLLRYFSQSDKSQGPQVPPRFSGSKDVARNRGYLSISVTHVFGSGTQLTVLSQQVQLVQ | 0.163 | 0.053 |
| HC 3/SLC 3 (antibody) chain 1: GQGTLVTVSSASTQPVLHQPPAMSSALGTTIRLTCTLRNDHDIGVYSVYWYQQRPGHPPRFLLRYFSQSDKSQGPQVPPRFSGSKDVARNRGYLSISELQPEDEAMYYCAMGARSRCWPRGFQSKHNSVTHVFGSGTQLTVLSQPKATPSVTLFPPSSEELQANKATLVCLMNDFYPGILTVTWKADGTPITQGVEMTTPSKQSNNKYAASSYLSLTPEQWRSRRSYSCQVMHEGSTVEKTVAPAECS chain 2: MSWAPVLLMLFVYCTGCGPQPVLHQPPAMSSALGTTIRLTCTLRNDHDIGVYSVYWYQQRPGHPPRFLLRYFSQSDKSQGPQVPPRFSGSKDVARNRGYLSISVTHVFGSGTQLTVLSQPQVQLVQ | 0.135 | 0.055 |
